Measured values from the supplement of paper PMC9170038.

Tested on: MS2 coat protein
Test: apparent KD of MS2 coat protein; designed switch direction (-1 OFF switch, 1 ON switch): -1; higher = weaker reporter binding
Method in brief: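 The apparent KD reported per design is the median over clusters of curve fits to normalised cluster fluorescence. The RNA switches were transcribed on Illumina chips by stalled E. coli RNA polymerase. SNAP-549-labelled MS2 coat protein was titrated from 0.7 or 1.5 nM, doubling up to 3 µM, in Tris-HCl pH 7.5 buffer containing KCl, MgCl2, BSA, DTT, tRNA and Tween-20, with no input, 200 uM small-molecule ligand, or an oligonucleotide input.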

[1] = input ligand: microRNA oligo, concentration not stated
[2] = Eterna round: R95, input ligand: FMN 200 uM
[3] = Eterna round: R95, input ligand: microRNA oligo, concentration not stated
[4] = Eterna round: R95, input ligand: none

With “AAUAACAAGCAAGAUCCUAACAUGAGGAUCACCCAUGUGCUCGUCUUGUAAAGUACUAUCACGAAAGUGAUAGUACA [Sensor 3, v1 - 48] (Eterna round: R96, puzzle: Sensor v3, turn-off variant 1)” the “apparent KD of MS2 coat protein” value (input ligand: FMN 200 uM) was 22.3 nM, the “apparent KD of MS2 coat protein” value [1] was 437 nM and the “apparent KD of MS2 coat protein” value (input ligand: none) was 25.5 nM.

With “AAUAACAAGCAAGAUCCUAACAUGAGGAUCACCCAUGUGCUCGUCUUGUAAAGUACUAUCACGAAAGUGAUAGUACA [Sensor 3, v1 - 48] (puzzle: Sensor v3, turn-off variant 1)” the “apparent KD of MS2 coat protein” value [2] was 20 nM, the “apparent KD of MS2 coat protein” value [3] was 723 nM and the “apparent KD of MS2 coat protein” value [4] was 22.1 nM.

“AAUAACAAGUGAGAUCCUAACAUGAGGAUCACCCAUGUGCUCGUCUUAUAAAGUACUAUCACGAAAGUGAUAGUACA [Sensor 3, v1 - 54] (puzzle: Sensor v3, turn-off variant 1)” was tested, and the “apparent KD of MS2 coat protein” value [2] was 117 nM, the “apparent KD of MS2 coat protein” value [3] was 7.29 nM and the “apparent KD of MS2 coat protein” value [4] was 70.6 nM.

“AAUAACAGAGGAUAUACGAAAAUAAGCGGAAACGCAAAGGGACAUGAGGAUCACCCAUGUAGAAGGCUGGAUAA [Tetraloop... 61% 2] (Eterna round: R96, puzzle: Exclusion 2)” was tested, and the “apparent KD of MS2 coat protein” value (input ligand: FMN 200 uM) was 204 nM, the “apparent KD of MS2 coat protein” value [1] was 19.6 nM and the “apparent KD of MS2 coat protein” value (input ligand: none) was 34.2 nM.

In the case of “AAUAACAGAGGAUAUACUAUUUUAUGUGUUUAUUGUUUUGAACAUGAGGAUCACCCAUGUAGAAGGCUGAAUAA [JMF 24] (puzzle: Exclusion 2)”, the “apparent KD of MS2 coat protein” value [3] is reported as 22.3 nM.

In the case of “AAUAACAGAGGAUAUACUAUUUUAUGUGUUUAUUGUUUUGAACAUGAGGAUCACCCAUGUAGAAGGCUGAUUGA [JMF 78] (puzzle: Exclusion 2)”, the “apparent KD of MS2 coat protein” value [3] is reported as 40.7 nM.

With “AAUAACAGAGGAUAUACUGUUUUAUGUAUUUAUUAUUUUAAACAUGAGGAUCACCCAUGUAGAAGGCUGAUUAA [JMF 43] (puzzle: Exclusion 2)” the “apparent KD of MS2 coat protein” value [3] was 27.4 nM.

For “AAUAACAGAGGAUAUACUGUUUUAUGUGUUUGUUAUUUUAAACAUGAGGAUCACCCAUGUAGAAGGCUGAAUGA [JMF 57] (puzzle: Exclusion 2)”, the “apparent KD of MS2 coat protein” value [3] was 22 nM.

“AAUAACAGAGGAUAUACUGUUUUAUGUGUUUGUUGUUUUAAACAUGAGGAUCACCCAUGUAGAAGGCUGAGUAA [JMF 34] (puzzle: Exclusion 2)” was tested, and the “apparent KD of MS2 coat protein” value [3] was 21 nM.

With “AAUAAGUGAGGAUAUACGUCUGGACCCGGGAGGGCUAUAUAACAUGAGGAUCACCCAUGUAGAAGGCACAAUAA [Excls2-IV] (puzzle: Exclusion 2)” the “apparent KD of MS2 coat protein” value [3] was 16.2 nM.

For “AAUAAGUGAGGAUAUGCGUCUGGUCCCGGGAGGGCUAUAUAACAUGAGGAUCACCCAUGUAGAAGGCACAAUAA [Excls2IV] (puzzle: Exclusion 2)”, the “apparent KD of MS2 coat protein” value [3] was 15.2 nM.

“AAUAAUAAAGUCAGGAUAUCUAGAGCUUCGGCUCUAGAGAAGGGACAUGAGGAUCACCCAUGUCACUCAAUAAU [BmEx4/3-D1] (Eterna round: R97, puzzle: Brourd's mod of Exclusion 4)” was tested, and the “apparent KD of MS2 coat protein” value (input ligand: FMN 200 uM) was 21.6 nM and the “apparent KD of MS2 coat protein” value (input ligand: none) was 15.1 nM.

With “AAUAAUAAUGUGAGGAUAUCUAGAGCCUCGGCUCUAGAGAAGGCACAUGAGGAUCACCCAUGUCUCAAUAAUAA [BmEx4/2-E5] (Eterna round: R97, puzzle: Brourd's mod of Exclusion 4)” the “apparent KD of MS2 coat protein” value (input ligand: FMN 200 uM) was 307 nM and the “apparent KD of MS2 coat protein” value (input ligand: none) was 52.8 nM.

For “AAUAAUGAUAAGGAUAUCACUAGCGAUAGCUAGUGAGAAGGUAUCACAUGAGGAUCACCCAUGUGUUCCAAUAA [Ex6/6-A4] (Eterna round: R97, puzzle: Exclusion 6)”, the “apparent KD of MS2 coat protein” value (input ligand: FMN 200 uM) was 35.2 nM and the “apparent KD of MS2 coat protein” value (input ligand: none) was 17 nM.

With “AAUAAUGGAGGAUAUACUAAAAUAUGAAUAAAAUAAAUAAAACAUGAGGAUCACCCAUGUAGAAGGCCAAAUAA [JMF's Not so obvious solution 2] (puzzle: Exclusion 2)” the “apparent KD of MS2 coat protein” value [2] was 20.9 nM, the “apparent KD of MS2 coat protein” value [3] was 22.7 nM and the “apparent KD of MS2 coat protein” value [4] was 27.7 nM.

For “AAUAAUUGUGACAUGGGCGACAUGAGGAUCACCCAUGUUACAAGCUUGUUGCUCGUCUUAUAAUUAACCCAUGUCAC [LRO Sensor-off var1-22 mod of Stov1-13-A1 by Brourd] (Eterna round: R97, puzzle: Sensor, turn-off variant 1)”, the “apparent KD of MS2 coat protein” value (input ligand: FMN 200 uM) was 16.3 nM and the “apparent KD of MS2 coat protein” value (input ligand: none) was 15.2 nM.

For “AAUAAUUGUGACUUGGGCGACAUGAGGAUCACCCAUGUUACAAGCUUGUUGCUCGUCUUAUAAUUAACCCAUGUCAC [LRO Sensor-off var1-23 mod of Stov1-13-A1 by Brourd] (Eterna round: R97, puzzle: Sensor, turn-off variant 1)”, the “apparent KD of MS2 coat protein” value (input ligand: FMN 200 uM) was 15.8 nM and the “apparent KD of MS2 coat protein” value (input ligand: none) was 18.4 nM.

For “AAUACAAGCUAUUGAUCCCACAUGAGGAUCACCCAUGUAGCUGGCGGUGACACCUCCUUUACGAUAGCUCGUCUUAU [Sensor-V1 #55] (Eterna round: R97, puzzle: Sensor, turn-off variant 1)”, the “apparent KD of MS2 coat protein” value (input ligand: FMN 200 uM) was 604 nM and the “apparent KD of MS2 coat protein” value (input ligand: none) was 1200 nM.

For “AAUACACAUGAGGAUCACCCAUGUUAGGAUAUGAGCGGGCAGACAGACAGACAGACGAUCAGAAGGAAUAGGAA [Excls1-VI] (puzzle: Exclusion 1)”, the “apparent KD of MS2 coat protein” value [2] was 25.5 nM, the “apparent KD of MS2 coat protein” value [3] was 30.2 nM and the “apparent KD of MS2 coat protein” value [4] was 28.9 nM.

For “AAUACACAUGAGGAUCACCCAUGUUAGGAUAUUAGCGGGCAGACAGACAGACAGACGAUGAGAAGGAACAGGAA [Excls1-VII] (puzzle: Exclusion 1)”, the “apparent KD of MS2 coat protein” value [2] was 23.3 nM, the “apparent KD of MS2 coat protein” value [3] was 22.3 nM and the “apparent KD of MS2 coat protein” value [4] was 27.7 nM.

In the case of “AAUACUAACACGAAAGUGUUAGUACAAUAAGCUUGUGAAACAUGAGGAUCACCCAUGUCCUCAUAAGCUCGUCUUAA [salish99_TOv2_r3_011] (puzzle: Sensor v3, turn-off variant 2)”, the “apparent KD of MS2 coat protein” value [2] is reported as 12.3 nM, the “apparent KD of MS2 coat protein” value [3] is reported as 309 nM and the “apparent KD of MS2 coat protein” value [4] is reported as 13.1 nM.

“AAUAGCUAAGGAUAUACAUGAGGAUCACCCAUGUAAAACACUACUUGGAACCGCCUCGGUAGAAGGUAGAAAAU [Arbean] (puzzle: Exclusion 3)” was tested, and the “apparent KD of MS2 coat protein” value [3] was 21.5 nM.

In the case of “AAUAUACUAGGAUAUACAUGAGGAUCACCCAUGUCCGCAUAUUGGGAUCUUAGACCUUGUAGAAGGAGUGGACG [Eternabot (L2) Solution 15] (Eterna round: R97, puzzle: Exclusion 3)”, the “apparent KD of MS2 coat protein” value (input ligand: FMN 200 uM) is reported as 99.2 nM and the “apparent KD of MS2 coat protein” value (input ligand: none) is reported as 97.6 nM.

In the case of “AAUAUUAGAGGAUAUACAGUUUAUUACAUGAGGAUCACCCAUGUUCUUCAAUGUAUAUAAGUAGAAGGCUAAGGAA [EX-5 Malc#2] (puzzle: Exclusion 5)”, the “apparent KD of MS2 coat protein” value [2] is reported as 157 nM, the “apparent KD of MS2 coat protein” value [3] is reported as 42.6 nM and the “apparent KD of MS2 coat protein” value [4] is reported as 43.7 nM.

With “AAUCAGUGUGUGAGGAUAUUGGUGGAGUGACUUAUUAAGAAGGCACAUGAGGAUCACCCAUGUGGGAAGUCAGG [JR_BMEx4_Sub017] (Eterna round: R97, puzzle: Brourd's mod of Exclusion 4)” the “apparent KD of MS2 coat protein” value (input ligand: FMN 200 uM) was 13.9 nM and the “apparent KD of MS2 coat protein” value (input ligand: none) was 14.8 nM.

“AAUCCACAUGAGGAUCACCCAUGUCAGGAUAUCUUUGGCCUAACAUGUUAGGACCGUUAGAGAAGGGACACGAU [EX1 B.28] (Eterna round: R97, puzzle: Exclusion 1)” was tested, and the “apparent KD of MS2 coat protein” value (input ligand: FMN 200 uM) was 70.3 nM and the “apparent KD of MS2 coat protein” value (input ligand: none) was 18.2 nM.

“AAUCCACAUGAGGAUCACCCAUGUGAGGAUAUGUCCAUAUUCGGCAAAUCGGAUAUGGACAGAAGGCACAUAAA [JR_Exclusion1_Sub013] (Eterna round: R96, puzzle: Exclusion 1)” was tested, and the “apparent KD of MS2 coat protein” value (input ligand: FMN 200 uM) was 99.5 nM, the “apparent KD of MS2 coat protein” value [1] was 21 nM and the “apparent KD of MS2 coat protein” value (input ligand: none) was 26.5 nM.

With “AAUCCACAUGAGGAUCACCCAUGUGAGGAUAUGUCCAUAUUCGGCAAAUCGGAUAUGGACAGAAGGCACAUAAA [JR_Exclusion1_Sub013] (puzzle: Exclusion 1)” the “apparent KD of MS2 coat protein” value [3] was 28.3 nM.

With “AAUCCUGAAGUUAGGAUAUGAAGUAUCACUACACUUCAGAAGGAACUUGAGGAUCACCCAAGUAGCCGUGAGGC [jl-bmx4.4.63 ViennaUCT mod] (Eterna round: R97, puzzle: Brourd's mod of Exclusion 4)” the “apparent KD of MS2 coat protein” value (input ligand: FMN 200 uM) was 96 nM and the “apparent KD of MS2 coat protein” value (input ligand: none) was 20.3 nM.

For “AAUCUACAUGUAGGAUAUGCGUGGCGAAGCUAUGCAGAAGGACAUGAGGAUCACCCAUGUUUUAGCGUCUGCGUACAGAUGCGA [Mat - Exclusion NG 1 - Mod of JL - D99] (Eterna round: R96, puzzle: Exclusion NG 1)”, the “apparent KD of MS2 coat protein” value (input ligand: FMN 200 uM) was 269 nM, the “apparent KD of MS2 coat protein” value [1] was 24.4 nM and the “apparent KD of MS2 coat protein” value (input ligand: none) was 27.2 nM.

In the case of “AAUGAUGAUGUGAGGAUAUACAUAGUUAGACCGUAGUAGAAGGCACAUGAGGAUCACCCAUGUAGAUGUAAGGU [JR_BME4_Sub002] (puzzle: Brourd's mod of Exclusion 4)”, the “apparent KD of MS2 coat protein” value [2] is reported as 26.3 nM, the “apparent KD of MS2 coat protein” value [3] is reported as 17 nM and the “apparent KD of MS2 coat protein” value [4] is reported as 17.7 nM.

“AAUGAUUGACGAGGAUAUUGUGGUAGAUCACGACGAGAAGGCGUCUGUCACAUGAGGAUCACCCAUGUGAGCUUUGUGGAUAGA [Ex NG1 #73] (Eterna round: R96, puzzle: Exclusion NG 1)” was tested, and the “apparent KD of MS2 coat protein” value (input ligand: FMN 200 uM) was 51.6 nM, the “apparent KD of MS2 coat protein” value [1] was 37.4 nM and the “apparent KD of MS2 coat protein” value (input ligand: none) was 72.2 nM.
